Data on two molecules can be found in patent US20240084031A1 (Seagen, published 2024).

The target of test [1] is T1, human FcγRIIIa, 158V (high affinity), full length on stably transfected CHO cells (human, UniProt P08637 17-254).
T1 construct: whole, on cells; CHO DG44 line '158V'; also called CD16
Put plainly: cell-based competition binding, flow cytometry (LSRII): serial dilutions of unlabelled competitor against 100 nM Alexa Fluor 488-labelled h1F6 IgG1 on CHO cells expressing human FcγRIIIa 158V. How it is done: (§1) Labeled cells were detected using an LSRII FACS analyzer.
(§2) Binding of variant humanized anti-CD70 (h1F6) antibodies to CHO cells expressing full-length FcγRIIIa was also determined by competition binding. […] Labeled cells were detected using an LSRII FACS analyzer.

Test [2] addresses T2, human FcγRI, full length on stably transfected CHO cells (human, UniProt P12314 16-374).
T2 construct: whole, on cells; also called CD64; Fcγ receptor I
Put plainly: cell-based competition binding, flow cytometry (LSRII): serial dilutions of unlabelled competitor against 50 nM Alexa Fluor 488-labelled h1F6 IgG1 on CHO cells expressing human FcγRI. How it is done: as §1
(§3) Binding of humanized anti-CD70 (h1F6) antibody to CHO cells expressing full-length FcγRI was determined by competition binding. […] Labeled cells were detected using an LSRII FACS analyzer.
(In general: Flow cytometry measures light scatter and fluorescence of single cells or particles in a stream.)

For test [3], the target named is T3, mouse CD70 (the corresponding antigen from mice) (mouse, UniProt O55237 45-195, limits assumed).
T3 construct: Named only as 'the corresponding antigen from mice'
T3 sequence (looked up): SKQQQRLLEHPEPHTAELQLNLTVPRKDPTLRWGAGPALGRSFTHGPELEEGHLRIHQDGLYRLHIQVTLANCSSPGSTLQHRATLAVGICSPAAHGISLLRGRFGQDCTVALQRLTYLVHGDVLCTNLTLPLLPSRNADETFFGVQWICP
Put plainly: not described (statement in the example on maximum tolerated dose).

Test [4] has as its target T4, human CD70 on CD70 positive cell lines (human, UniProt P32970 1-193).
T4 construct: whole, on cells
T4 sequence (looked up): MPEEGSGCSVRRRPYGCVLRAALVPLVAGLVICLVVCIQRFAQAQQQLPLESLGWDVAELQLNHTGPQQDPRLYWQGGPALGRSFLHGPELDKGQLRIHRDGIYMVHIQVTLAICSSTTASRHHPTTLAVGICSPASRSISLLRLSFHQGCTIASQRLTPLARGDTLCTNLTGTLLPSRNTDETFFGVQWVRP
Put plainly: saturation binding of europium-labelled antibody to CD70+ Caki-2 cells (apparent KD). The text has this:
(§4) Humanized 1F6 antibody derivatives HDLA (hVHD and hVLA), HHLA (hVHH and hVLA), and HJLA (hVHJ and hVLA), and c1F6 were transiently expressed in 293 cells, labeled with europium using the Eu-N1 iodoacetamido chelate (Perkin Elmer), and analyzed for saturation binding to a panel of CD70 positive cell lines as described in detail in U.S. Patent Application No. 60/673,070, filed Apr. 19, 2005; and PCT International Publication No. WO 2006/113909.

Test [5] concerns the target T2, human FcγRI, full length on stably …. Nature of the test: cell-based competition binding on CHO cells expressing full-length FcγRI, 'performed as described previously' (50 nM Alexa Fluor 488-labelled h1F6 IgG1). How it is done:
as §3
(§5) Binding of one of the variants, IgG1 S239C, to CHO cells expressing full-length FcγRIIIa and FcγRI was determined as described above. […] The control, parent antibody h1F6, binds to FcγRIIIa-expressing cells and FcγRI-expressing cells.

Test [6] addresses T4, human CD70 on CD70 positive cell lines. Nature of the test: 786-O cell binding, apparent KD of the IgG.
For test [7] the target is unchanged. Put plainly: saturation binding of europium-labelled antibody to CD70+ 786-O cells (apparent KD).
Source text: as §4

For test [8] the target is unchanged. Nature of the test: saturation binding of europium-labelled antibody to CD70+ ACHN cells (apparent KD).
Source text: as §4

Test [9] has the same target. Nature of the test: saturation binding of europium-labelled antibody to CD70+ Caki-1 cells (apparent KD).
Source text: as §4

The target of test [10] is T1, human FcγRIIIa, 158V (high affinity), …. Nature of the test: cell-based competition binding on CHO cells expressing full-length FcγRIIIa, 'performed as described previously' (158V line, 100 nM Alexa Fluor 488-labelled h1F6 IgG1); the sheet says only FcγRIIIA. How it is done: as §2, §5

T2 sequence (P12314 16-374): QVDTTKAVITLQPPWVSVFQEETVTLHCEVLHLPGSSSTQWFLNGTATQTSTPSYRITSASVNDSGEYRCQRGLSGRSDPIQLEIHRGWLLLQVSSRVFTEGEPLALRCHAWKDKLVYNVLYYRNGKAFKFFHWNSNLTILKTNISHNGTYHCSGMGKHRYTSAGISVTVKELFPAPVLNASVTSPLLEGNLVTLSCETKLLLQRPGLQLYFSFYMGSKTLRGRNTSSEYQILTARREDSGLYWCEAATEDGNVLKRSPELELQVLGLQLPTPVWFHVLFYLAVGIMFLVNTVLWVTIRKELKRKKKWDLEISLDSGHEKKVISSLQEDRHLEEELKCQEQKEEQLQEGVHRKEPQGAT
T1 sequence (P08637 17-254 F176V): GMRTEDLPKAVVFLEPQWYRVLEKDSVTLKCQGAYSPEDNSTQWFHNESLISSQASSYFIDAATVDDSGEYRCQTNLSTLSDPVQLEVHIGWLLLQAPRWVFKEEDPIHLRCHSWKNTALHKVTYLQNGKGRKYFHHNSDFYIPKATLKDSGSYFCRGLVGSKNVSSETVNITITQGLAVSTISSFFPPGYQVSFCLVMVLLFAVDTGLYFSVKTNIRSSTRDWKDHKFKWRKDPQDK

B1: h1F6 IgG1 vcMMAF(4) antibody drug conjugate (antibody)
heavy: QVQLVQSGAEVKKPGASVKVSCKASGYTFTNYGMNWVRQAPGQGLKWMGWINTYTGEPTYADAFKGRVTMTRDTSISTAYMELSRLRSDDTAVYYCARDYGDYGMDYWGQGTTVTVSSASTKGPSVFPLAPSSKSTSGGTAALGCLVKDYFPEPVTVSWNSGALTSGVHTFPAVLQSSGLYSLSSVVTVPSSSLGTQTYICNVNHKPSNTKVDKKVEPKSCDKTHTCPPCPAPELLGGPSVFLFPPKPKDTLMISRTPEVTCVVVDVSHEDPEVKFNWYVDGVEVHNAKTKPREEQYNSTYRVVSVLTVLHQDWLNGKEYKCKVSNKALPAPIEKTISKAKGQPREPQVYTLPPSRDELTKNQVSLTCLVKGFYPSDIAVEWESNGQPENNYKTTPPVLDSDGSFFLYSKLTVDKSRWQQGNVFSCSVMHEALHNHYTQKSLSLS
light: DIVMTQSPDSLAVSLGERATINCRASKSVSTSGYSFMHWYQQKPGQPPKLLIYLASNLESGVPDRFSGSGSGTDFTLTISSLQAEDVAVYYCQHSREVPWTFGQGTKVEIKRTVAAPSVFIFPPSDEQLKSGTASVVCLLNNFYPREAKVQWKVDNALQSGNSQESVTEQDSKDSTYSLSSTLTLSKADYEKHKVYACEVTHQGLSSPVTKSFNRGEC
modifications: vcMMAF conjugated, mean loading of 4 drugs/antibody; attachment residues not stated
notes: also called h1F6 G1-vcMMAF(4); IgG1-F4
As for B1, the binding result in test [1] and in test [2] was “binds” throughout.

B2: humanized 1F6 antibody derivative HJLA (hVHJ and hVLA), human IgG1 (antibody)
heavy: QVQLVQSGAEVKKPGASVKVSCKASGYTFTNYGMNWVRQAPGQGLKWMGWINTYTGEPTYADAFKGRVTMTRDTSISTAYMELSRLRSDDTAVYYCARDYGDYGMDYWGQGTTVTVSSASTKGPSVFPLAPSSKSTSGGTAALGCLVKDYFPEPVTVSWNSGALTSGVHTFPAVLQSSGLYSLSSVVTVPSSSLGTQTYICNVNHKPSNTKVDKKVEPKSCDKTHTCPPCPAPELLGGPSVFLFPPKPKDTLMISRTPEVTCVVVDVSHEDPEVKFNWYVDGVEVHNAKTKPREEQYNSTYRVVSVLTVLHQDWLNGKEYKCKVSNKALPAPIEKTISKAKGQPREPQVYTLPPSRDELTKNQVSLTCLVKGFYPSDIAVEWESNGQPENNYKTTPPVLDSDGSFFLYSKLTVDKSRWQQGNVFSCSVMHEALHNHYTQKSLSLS
light: DIVMTQSPDSLAVSLGERATINCRASKSVSTSGYSFMHWYQQKPGQPPKLLIYLASNLESGVPDRFSGSGSGTDFTLTISSLQAEDVAVYYCQHSREVPWTFGQGTKVEIKRTVAAPSVFIFPPSDEQLKSGTASVVCLLNNFYPREAKVQWKVDNALQSGNSQESVTEQDSKDSTYSLSSTLTLSKADYEKHKVYACEVTHQGLSSPVTKSFNRGEC
notes: also called h1F6 HJLA; h1F6 IgG1
In the case of B2, the binding result in test [3] is reported as “no binding”. In addition, the Kd in [4] came out at 0.37 nM; in test [6], 0.6 nM; in test [7] it was 0.46 nM; in [8], 0.68 nM; in [9], 1.36 nM. Further, the “IC50 (read off the curve)” value was roughly 6 nM in test [5] and roughly 200 nM in [10].
